We go through 30 sequences from the nanobody polyreactivity screen of Harvey et al. (2022).

The series can be described thus: yeast display, Sf9 membrane polyspecificity reagent, FACS + sequencing; frameworks hold sequencing errors. In short, it runs like this: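 Polyreactivity labels are assigned by the sorting gate from which each nanobody was recovered. The gates were low and high (top ~1%), set on anti-HA fluorescence for expression and streptavidin fluorescence for reagent binding. Before sorting, galactose-induced (36–48 hours) yeast display cells were stained for 1 hour at 4 °C with 10% biotinylated, detergent-solubilized Sf9 membrane reagent.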
“QVQLVESGGGLVQAGGSLRLSCAASGGTFRRYTMGWYRQAPGKERELVAVISRSGGSTYYADSVKGRFTISRDNAKNTVYLQMNSLKPEDTAVYYCAVVYYNGYDWGQGTQVTVSS”: the “polyreactivity (PSR sort gate)” value was “high polyreactivity”. Then “QVQLVESGGGLVQAGGSLRLSCAASGRIFYRNAMGWYRQAPGKERELVAAISRRGGSTSYADSVKGRFTISRDNANNTVYLQMNSLKPEDTAVYYCAASRFRTGQEDDYWGQGTQVTVSS”, with “high polyreactivity”; and “QVQLVESGGGLVQAGGSLRLSCAASGSIFKTNAMGWYRQAPGKERELVAAITGSGGSTYYADSVKGRFTISRDNAKNTVYLQMNSLKPEDTAVYYCAKRSYRPILRWSYDYWGQGTQVTVSS”, with “low polyreactivity”; and “QVQLVESRGGLVQARGSLRLSSAASGRIFSDYAMGCYRQAPGKERDLVATISGGITNYADSVKGRFTISRDNANNTVYLQMNSLKPEDTAVYYCATVDGAYQYTYDYWGEGTQVTVSS”, with “low polyreactivity”. Then “QVQLVESGGGLVQAGGSLRLSCAASGRISRVYVMGWYRQAPGKERELVAAISFRGGSTFYADSVKGRFTISRDNAKNTVYLQMNSLKPEDTAVYYCAATVYPLAYDYWGQGTQVTVSS”, with “high polyreactivity”; and “QVQLVESGGGLVQAGGSLRLSCAASGRIFGQNTMGWYRQAPGKERELVAAITWNGGRTYYADSVKGRFTISRDNAKNTVYLQMNSLKPEDTAVYYCAARYSTYPWYNYWGQGTQVTVSS”, with “high polyreactivity”. In the case of “QVQLVESGGGLVQAGGSLRLSCAASGFTFTTYVMGWYRQAPGKERELVAAISRRGTSTRYADSVKGRFTISRDNAKITVYLQMNSLKTEDTAVYFCAADRPYSIVPYDYWGQGTQVTVSS”, the “polyreactivity (PSR sort gate)” value was “high polyreactivity”. Then “QVQLVESGGGLVQAGGSLRLSCAASGSTFATYAMGWYRQAPGKERELVAAISKSGGSTYYADSVKGRFTISRDNAKNTVYLQMNSLKPEDTAVYYCAAVGPYRWYDYWGQGTQVTVSS”, with “high polyreactivity”. Then “QVQLVESGGGLVQAGGSLRLSCAASGRTIRSYAMGWYRQAPGKERELVAAITGSGGRTYYADSVKGRFTISRDNAKNTVYLQLNSLKPEDTAVYYCAARLRGSYDYWGQGTQVTVSS”, with “high polyreactivity”. Then “QVQLVESGGGLVQAGGRLRLSCAASGFTFRYYAMGWSRQAPGKERELVAGISYRGTSTYYADSVKGRFTISRDNAKNTVYLQMNSLKPEDTAVYYCADEVRYDRHDYWGQGTQVTVSS”, with “high polyreactivity”; and “QVQLLESGGGLVQAGGSLRLSCAASGSIFVKYDMGWYRQAPGKDRELVAAIRSGASTTYADSVKGRFTISRDNAKITVYLQMNSLKPEDTAVYYCAADQRGWGYTYGKGGDYWGQGTQVTVSS”, with “low polyreactivity”; and “QVQLVESGGGLVQAGGSLRLSCAASGIISVRNTMGWYRQAPGKERELVAAISGSGGSTHYADSVKGRFTISRDNAKNTVYLQMNSLKTEDTEVYYCAVRSYGYWHFGYWGQGTQVTVSS”, with “high polyreactivity”. As for “QVQLVESGGGLVQAGGSLRLSCAASGSIFSYYAMGWYRQAPGKERELVAAISWSGGRTYYADSVKGRFTISRDNAKNTVYLQMNSLKPEDTAVYYCNVDVYVVPHYDYWGQGTQVTVSS”, the “polyreactivity (PSR sort gate)” value was “high polyreactivity”. “QVQLVESGGGLVQAGGSLRLSFAASGSIFVGYAMGLYRQAPGKERELVAAISWSGDSTYYADSVKGRFTISRDNAKNTVYLQMYSLKPEDTAVPYCAVDPQQVRTLDYYVGYDYWGQGTQVTVSS”: the “polyreactivity (PSR sort gate)” value was “low polyreactivity”.

As for “QVQLVESGGGLVQAGGSLRLSCAASGFIFYRNTMGWYRQAPGKEREFVAAIRWRGGSTYYADSVKGRFTISRDNAKNTFYLQLNSVKPEDTAVYYCAADTRPGYSGFEYWGQGTQVTVSS”, the “polyreactivity (PSR sort gate)” value was “high polyreactivity”. Consider “QVQLEESGGGLVQAGGSLRLSCAASGSTFSGYAMGWYIPAPGKERELVATIRRGGSTYADSVKGRFTISRDNAKNTVYLQMNSLKPEDTAVYYCAADAYVSSQPMDYWGQGTQVTVSS”, for which the “polyreactivity (PSR sort gate)” value was “high polyreactivity”. Then “QVQLVESGGGLVHAGGSLRLSSAASGRTFLSYTMGWYRQAPGKERELVAVISRSGGRTYYADSVKGRFTISRDNATNTVYLQMNSLKPEDTADYYCAADTYRGYDFDYWGQGSQVTVSS”, with “high polyreactivity”; and “QVQLVESGGGLVQAGGSLRLSCAASGRIFTRNAMGLYRQAPGKERELVAAISWRGGSTYYADSVKGRFTISRDNAKNTVYLQMNSLKPEDTAVYYCAAQPWFGRAARYRTTYYYWGQGTQVTVSS”, with “high polyreactivity”; and “QVQLVESGGGLVQAGGSLRLSCAASGFTFTWYAMGWYRQAPGKERELVAAISSGGGRTYYADSVKGRFTISRDNAKNTVYLQMNSLKPEDTAVYYCNKVSSFGYYYWGQGTQVTVSS”, with “high polyreactivity”. On to “QVQLVESGGGLVQAGGSLRLSCAASGFISARYAMGWYRQAPGKERELVAGISGGGGRTYYADSVKGRFTISRDNAKNTVYLQMNSLKPEDTAVFYCAATLQSRDRRFNYWGQGTQVTVSS”, for which the “polyreactivity (PSR sort gate)” value is reported as “high polyreactivity”. Turning to “QVQLVESGGGLVQAGGSLRLSCAASGRSFIENVKGWYRQAPGKERELVAAIRSAGTTYNADSVKGRFTISRDNAKNTVYLQMNSLKPEDTAVDYCAATNRYYWSYFYQSKYGYWGQGTQVTVSS”, the “polyreactivity (PSR sort gate)” value is on record as “low polyreactivity”.

Regarding “QVQLVESGGGLVQAGGSLRLSCAASGSIFLYNAMGWYRQAPGKERELVATITSSTGSTYYADSVKGRFTISRDNAKNTVYLQMNSLKPEDTAVYYCATRESRRQRRYYYWGQGTQVTLSS”, the “polyreactivity (PSR sort gate)” value was “high polyreactivity”. On to “QVQLQESGGGLAQAGGSQRLSCAASGTIFAADSMGWYRQAPGKERELVAGITSGANTYYADSVKGRYTISHDNAKKTVYLQMDSLIPEAIAVYYCAAPGSTTYDLEYWGQGTQVTVSS”, for which the “polyreactivity (PSR sort gate)” value is listed as “high polyreactivity”. Turning to “QVQLVDSGGGLVQAGCSLRLSCPASGGTFGYYAMGWYRQAPGKERELVAGINYSGGRTYYADSVKGRFTISRDNAMNTVYLKMDSLKPEDTAVYYCAAQAYVGYRGYDYWVQGTQVTVSS”, the “polyreactivity (PSR sort gate)” value is reported as “high polyreactivity”. For “QVHLVESGGGLVQAGGSLRLSCAASGIIFYDNTMGWYRQAPGTERELVASITWRGGSTYYADSVKGRFTISRDNAKNTVYLQMNSLKPEDTAVYYCNADSSDDYDYWGQGTQVTVSS”, the “polyreactivity (PSR sort gate)” value is given as “low polyreactivity”. In the case of “QVQLVESGGGLVQAGGSLRLSSAASGRTFAVYTMRWYRQAPGKEREFVARIRYSGGNTYYADSVKRRFTLSRDNAKNTVYLQMNSLKPEDTAVYSCAARSRYRVYGSRNFDYWGQGSQVTVSS”, the “polyreactivity (PSR sort gate)” value is recorded as “high polyreactivity”.

On to “QVQLVESGGGLVQAGGSLRLSCAASGSTLGYNVMAWYRQAPGKERELVAAISGEGSTNYADSVKGRFTISRDNAKNTVYLQMNSLKPEDTAVYYCAADSRDDYEYWRQGTQVTVSS”, for which the “polyreactivity (PSR sort gate)” value is given as “low polyreactivity”. For “QVQLVESGGGLVQAGGSLRLSCASSGIIFYTYAMGWYRQAPGKERELDAAITQTSAPTYYADSVKGRFTISRDNAKNTVYLQMNSLNPEDTAVYYCAAVPSYRVQGGRMYYWGQGTQVTVSS” the value was “high polyreactivity”; for “QVQLVESWGGLVQAGGSLRLSCAASGSTFFSYAMGWYRQAPGKERELVAGIEWNGGDTNYADSVKGRFTISRDNAKNTVYLQMNSRKPVDTAVYYCATDYSYPGPFRRRERFDYWGQGTQVTVSS”, “low polyreactivity”. For “QVQLVESGGGLVQAGGSLRLSCAASGRIFYAYAMGWYRQAPGKERELVAAISYIAGITYYADSVKGRFTISRDNAKNTVYLQMNSLIPEDTAVYYCAADDMVTGPLDFWGQGTQVTVSS” the value was “low polyreactivity”.
